{"source": "patent US20160368980A1", "about": "“INHIBITION OF GRANULOCYTE COLONY STIMULATING FACTOR IN THE TREATMENT OF CANCER” (STC.UNM, priority 2014, published 2016)", "format_in_all_cases": "cell-based, human", "key": {"[1]": {"test_system": "MKN-45 and Caco-2 carcinoma cells", "experiment": "G-CSF induced proliferation (CyQuant) with ERK1/2 or RSK inhibitors", "conditions": "10 μM inhibitor, 30 min before recombinant G-CSF", "protocol": "Proliferation: MKN-45, AGS, Caco-2 and DLD1 cells (2500 per well) were added to wells of a 96 well plate and incubated with 5-25 ng/ml of recombinant G-CSF (eBioscience) or conditioned media from MF for 48 hours. Conditioned media included a mixture of 50% media from cultured myofibroblasts and 50% fresh media for nutrients. Media from MF was taken when cells were 80% or greater confluent before passage (from approximately 1×10^6 cells). Proliferation was measured using CyQuant dye for DNA content (Life Technologies). […] Samples were read on a Tecan fluorescent plate reader (Mannedorf, Switzerland).\nHowever, most of the studies have been performed in myeloid cells or neutrophils. Thus, we sought to examine G-CSFR signaling in MKN-45 and Caco-2 cells. […] Cells were lysed and protein levels normalized. […] A 5-fold increase in phosphorylation was found in MKN-45 and a 10-fold increase in phosphorylation was found in Caco-2 cells (FIGS. 6A and B). […] ERK1/2 or RSK inhibitors were added to some wells of cells before addition of G-CSF, and proliferation examined by CyQuant proliferation assay for DNA content."}, "MKN-45 and Caco-2 cells [2]": {"test_system": "MKN-45 and Caco-2 cells", "experiment": "Aldefluor / CD44 staining of stem-like population by flow cytometry", "conditions": "for effect on G-CSF-induced stem marker expressing cell expansion (aldehyde dehydrogenase high, CD44): treatment with ERK1/2 or RSK inhibitor before G-CSF", "protocol": "(§1) Flow Cytometry: Single-and multi-color immunostaining was performed according to standard surface and intracellular FACS staining Biolegend protocols (Biolegend, San Diego, Calif.). Anti-Ep-cam Alexa-Fluor 488 (Biolegend 9c4) was used for identification of epithelial cells. The purity of MF was analyzed by staining for CD90-PE (Biolegend Thyl) and α-smooth actin-FITC (R&D Systems 1C14206) for flow cytometry compared to isotype controls. Anti-G-CSFR-PE (clone 1 mm 741 Biolegend) and G-CSF-FITC (clone 85FSCSF eBioscience) were used for the analysis of G-CSFR surface expression and intracellular G-CSF after 4 hour exposure to Brefeldin A compared to isotype controls. Anti-proliferating cell nuclear antigen (PCNA) (clone PCNA01, Biolegend) was used as a proliferation marker. Cancer stem-like populations in carcinoma cell lines were examined by staining with Aldefluor (Stem Cell Technologies, Vancouver, BC) and anti-CD44-APC (Biolegend clone BJ18) using the manufacturer's Aldefluor staining protocol compared to isotype control. All samples were analyzed on a Guava easyCyte 8HT flow cytometer (Millipore, Bellerica, Md.), and analyzed using FCS Express software (DeNovo Software, Los Angeles, Calif.).\nTherefore, assessment of MKN-45 and Caco-2 cells for a similar population was undertaken. […] Cells were also stained with CD44, since in gastric and colon cancers CD44 has also been shown on cells with stem-like features (Huang et al., 2009; Katsuno et al., 2012; Su et al., 2011b; Takaishi et al., 2009; Wakamatsu et al., 2012). To examine Aldefluor staining, cells were gated on the CD44 positive population. Then, another gate was set using the diethylaminobenzaldehyde (DEAB) inhibitor of aldehyde dehydrogenase as a negative control (FIG. 5A). […] G-CSF treatment expanded this population from 6% to 16% of the cell population (FIGS. 5C). Further, 48 hour treatment of MKN-45 and Caco-2 cells with 10 ng/ml of G-CSF led to an approximately 10% increase in the stem-like Aldefluor^highCD44^+population (FIG. 5D) with both cell types.\nIn parallel, ERK1/2 and RSK inhibition were also examined for effects on stem-like populations."}, "[3]": {"test_system": "Caco-2 and DLD1 colon carcinoma cells", "experiment": "CyQuant proliferation assay for DNA content, colon carcinoma cells", "conditions": "recombinant G-CSF 5-25 ng/ml, after 4 days, Caco-2 and DLD1, dose dependent", "protocol": "(§2) Proliferation: MKN-45, AGS, Caco-2 and DLD1 cells (2500 per well) were added to wells of a 96 well plate and incubated with 5-25 ng/ml of recombinant G-CSF (eBioscience) or conditioned media from MF for 48 hours. Conditioned media included a mixture of 50% media from cultured myofibroblasts and 50% fresh media for nutrients. Media from MF was taken when cells were 80% or greater confluent before passage (from approximately 1×10^6 cells). Proliferation was measured using CyQuant dye for DNA content (Life Technologies). Other samples were incubated with 10 μM ERK activation inhibitor peptide 1 or RSK inhibitor SL0101 (EMD Millipore) for 30 min before addition of recombinant G-CSF. Samples were read on a Tecan fluorescent plate reader (Mannedorf, Switzerland).\n(§3) MKN-45 and AGS gastric carcinoma cells and Caco-2 and DLD1 colon carcinoma cells were incubated with increasing doses of recombinant G-CSF (5-25 ng/ml), which were chosen based on reports of serum concentrations in patients (Morstyn et al., 1989). After 4 days (approximately 2 doubling times), proliferation was measured using the CyQuant fluorescent proliferation assay for DNA content. G-CSF treated cells were compared to untreated control cells. […] To further confirm G-CSF induction of cell proliferation, G-CSF treated cells were stained intracellularly for proliferating cell nuclear antigen (PCNA). […]"}, "[4]": {"test_system": "ERK1/2 and RSK1 phosphorylation in Caco-2 cells", "experiment": "Luminex signaling bead array, ERK1/2 and RSK1 phosphorylation, Caco-2", "conditions": "recombinant G-CSF 10 ng/ml", "protocol": "(§4) Luminex Arrays: G-CSF levels were measured in cell culture supernatants by singleplex fluorescent bead based array (Life Technologies) according to manufacturer's instructions. ERK1/2 and RSK phosphorylation were measured by Milliplex MAPmates phospho-ERK1/2 and RSK arrays (EMD Millipore, Billerica Mass.) according to the manufacturer protocol. All samples were analyzed on a Luminex 200 machine.\n(§5) Some studies have shown that G-CSFR signaling induces signaling pathways that lead to cell proliferation (Kamezaki et aL, 2005; Wang et al., 2008). However, most of the studies have been performed in myeloid cells or neutrophils. Thus, we sought to examine G-CSFR signaling in MKN-45 and Caco-2 cells. Cells were pre-incubated with serum free media for 2 hours before treatments and recombinant G-CSF (10 ng/ml) was added to wells in 15 min intervals. Cells were lysed and protein levels normalized. […] A 5-fold increase in phosphorylation was found in MKN-45 and a 10-fold increase in phosphorylation was found in Caco-2 cells (FIGS. 6A and B). […] Since we found phosphorylation of these signaling molecules after G-CSF treatment, we further sought to characterize the role of these pathways in the increased cell proliferation resulting from G-CSF treatment observed in MKN-45 and Caco-2 carcinoma cells shown in FIG. 3. […]"}, "[5]": {"test_system": "MKN-45 and AGS gastric carcinoma cells", "experiment": "CyQuant proliferation assay for DNA content, gastric carcinoma cells", "conditions": "recombinant G-CSF 5-25 ng/ml, after 4 days, dose dependent", "protocol": "as §2, §3"}, "[6]": {"test_system": "ERK1/2 and RSK1 phosphorylation in MKN-45 cells", "experiment": "Luminex signaling bead array, ERK1/2 and RSK1 phosphorylation, MKN-45", "conditions": "recombinant G-CSF 10 ng/ml", "protocol": "as §4, §5"}, "MKN-45 and Caco-2 cells [7]": {"test_system": "MKN-45 and Caco-2 cells", "experiment": "Fluoroblok migration assay (8 micron pores, CFSE-labeled cells)", "conditions": "10 ng/ml G-CSF in bottom wells, 4 hours", "protocol": "Migration: MKN-45 and Caco-2 cells were stained with carboxyfluorein succinimidyl ester (CFSE) (Life Technologies) and added to the top of Fluoroblok 96 well plates with […]. Serum free media, media with 10% FBS, recombinant G-CSF, or MF supernatants were added to the bottom of the wells. G-CSF neutralizing antibodies (1 μg/ml) were added to some cultures. The fluorescence of migrated cells was measured after 4 hours of incubation at 37° C. on a Tecan plate reader.\nGiven the ability of G-CSF to mobilize bone marrow derived hematopoietic cells during systemic administration (Held and Gundert-Remy, 2010), we assessed whether it could increase the migratory ability, and therefore the malignant potential, of gastric and colon cancer cells. MKN-45 and Caco-2 were serum starved overnight, fluorescently labeled with CFSE, and plated on FluorBlok™ plates with 8 micron pores and serum free media in the top of the wells. The bottom wells were filled with serum free media, serum free media containing 10 ng/ml of G-CSF or serum containing media (positive control). […] Both cell types migrated through the pores toward serum as a positive control, and at even higher rates toward G-CSF. […]"}, "[8]": {"test_system": "gastric and colon carcinoma cells", "experiment": "Intracellular PCNA staining by flow cytometry", "conditions": "G-CSF treated cells, both cell types", "protocol": "as §1, with “Cancer stem-like populations in carcinoma cell lines were examined by staining with Aldefluor (Stem Cell Technologies, Vancouver, BC) and anti-CD44-APC (Biolegend clone BJ18) using the manufacturer's Aldefluor staining protocol compared to isotype control.” left out\nMKN-45 and AGS gastric carcinoma cells and Caco-2 and DLD1 colon carcinoma cells were incubated with increasing doses of recombinant G-CSF (5-25 ng/ml), which were chosen based on reports of serum concentrations in patients (Morstyn et al., 1989). After 4 days (approximately 2 doubling times), proliferation was measured using the CyQuant fluorescent proliferation assay for DNA content. […]"}}, "data": [{"molecule": "ERK activation inhibitor peptide 1 [ERK1/2 inhibitor, reference compound]", "values": [{"measurement": "effect on G-CSF induced proliferation", "setting": "[1]", "result": "drastically inhibited"}, {"measurement": "effect on G-CSF-induced stem marker expressing cell expansion (aldehyde dehydrogenase high, CD44)", "setting": "MKN-45 and Caco-2 cells [2]", "result": "completely abrogated"}]}, {"molecule": "CC(=O)O[C@@H]1[C@@H](OC(C)=O)[C@@H](O)[C@H](Oc2c(-c3ccc(O)cc3)oc3cc(O)cc(O)c3c2=O)O[C@H]1C", "note": "[RSK inhibitor, SL0101, reference compound]", "values": [{"measurement": "effect on G-CSF induced proliferation", "setting": "[1]", "result": "drastically inhibited"}, {"measurement": "effect on G-CSF-induced stem marker expressing cell expansion (aldehyde dehydrogenase high, CD44)", "setting": "MKN-45 and Caco-2 cells [2]", "result": "completely abrogated"}]}, {"molecule": "G-CSF: recombinant G-CSF (eBioscience), pro-inflammatory cytokine (protein, UniProt P09920 31-208, looked up) Granulocyte …: VPLVTVSALPPSLPLPRSFLLKSLEQVRKIQASGSVLLEQLCATYKLCHPEELVLLGHSLGIPKASLSGCSSQALQQTQCLSQLHSGLCLYQGLLQALSGISPALAPTLDLLQLDVANFATTIWQQMENLGVAPTVQPTQSAMPAFTSAFQRRAGGVLAISYLQGFLETARLALHHLA", "values": [{"measurement": "increase in proliferation compared to untreated cells", "setting": "[3]", "result": "up to 4.5 fold"}, {"measurement": "increase in ERK1/2 and RSK1 phosphorylation", "setting": "[4]", "result": 10, "unit": "fold"}, {"measurement": "incubation time of peak ERK1/2 and RSK1 phosphorylation", "setting": "[4]", "result": 30, "unit": "min"}, {"measurement": "increase in the stem-like Aldefluor high CD44+ population", "setting": "MKN-45 and Caco-2 cells [2]; 48 hour treatment, 10 ng/ml G-CSF, MKN-45 and Caco-2 (both cell types)", "result": "approximately 10%"}, {"measurement": "stem-like Aldefluor population, share of the cell population after G-CSF treatment", "setting": "MKN-45 and Caco-2 cells [2]; MKN-45, gated on CD44 positive, untreated 6%", "result": 16, "unit": "%"}, {"measurement": "increase in proliferation compared to untreated cells", "setting": "[5]", "result": "≤ 2.5", "unit": "fold"}, {"measurement": "increase in ERK1/2 and RSK1 phosphorylation", "setting": "[6]", "result": 5, "unit": "fold"}, {"measurement": "incubation time of peak ERK1/2 and RSK1 phosphorylation", "setting": "[6]", "result": 30, "unit": "min"}, {"measurement": "increased migration compared to serum containing media", "setting": "MKN-45 and Caco-2 cells [7]", "result": 1.5, "unit": "fold"}, {"measurement": "increased migration compared to serum free media", "setting": "MKN-45 and Caco-2 cells [7]", "result": "≤ 4", "unit": "fold"}, {"measurement": "increase in PCNA staining compared to untreated cells", "setting": "[8]", "result": "greater than 2 fold"}]}]}
